In IntAct's records for PubMed 31515488:

B1: IQ motif and ubiquitin-like domain-containing protein (Homo sapiens), Q8NA54 (parent)
chain: MSNQQEKYEAQNIVNSTEESDDAFDTVTIPVPSEEPQESDQTEEHESGIEQFSESHAIHVEEQSDQSFSSLEPDNEQLMEEVISPRQVSYTPQHHEKQYAMQRPNDDSLAFLDKIKSVKESLQESVEDSLATVKVVLIPVGQEIVIPFKVDTILKYLKDHFSHLLGIPHSVLQIRYSGKILKNNETLVQHGVKPQEIVQVEIFSTNPDLYPVRRIDGLTDVSQIITVTVQTGLDQYQQVPVEIVKSDFHKPFLGGFRHKVTGVEYHNAGTQTVPKRIPERLSIFCRDTQTVFQKKNLQQTTNTTSTQMTNIGVYVSNMTDKLVTPGKYFSAAEYHAQRLKAVIVIQTYYRQWHAKIFVENLRRQKSLRLEWETQQELRKIREKEEWIKLDYHRRHNPKTNEDFEFLYNALEFWRQEELTRINQSFTGAERKAALCELLEKETQIIASIGRHRYIAYMANQEAAIQAFLDKCSAPKIWRTPNGKTIEMDTQFTIRARELQNIYKCIMLKNISQDERLDVLLTLKHTVKEHECKLTQEILELIDREVDLMMRGVKHHNLEGLRKRIATLFFHYIKTPLFNPEVAKYLKVPQDPLKFYKKIYFCHSCQLYLPSTEFSVSSTSRRIYRCRNCINLQNEAQKRESFLKYKCLLQQLYYTEADYEDDSKIAFLMQLQDIQYLTENIWASQSVLSACDNLSDLVMVRWNKSLEWSPWNCILLTKDEAAAHLKLTSIEEGYERSFIHKIKHKHILAKNYFSQVPVLASFILDDGEIDEIRWKYHSDTTPKIIESQRPPH
partner: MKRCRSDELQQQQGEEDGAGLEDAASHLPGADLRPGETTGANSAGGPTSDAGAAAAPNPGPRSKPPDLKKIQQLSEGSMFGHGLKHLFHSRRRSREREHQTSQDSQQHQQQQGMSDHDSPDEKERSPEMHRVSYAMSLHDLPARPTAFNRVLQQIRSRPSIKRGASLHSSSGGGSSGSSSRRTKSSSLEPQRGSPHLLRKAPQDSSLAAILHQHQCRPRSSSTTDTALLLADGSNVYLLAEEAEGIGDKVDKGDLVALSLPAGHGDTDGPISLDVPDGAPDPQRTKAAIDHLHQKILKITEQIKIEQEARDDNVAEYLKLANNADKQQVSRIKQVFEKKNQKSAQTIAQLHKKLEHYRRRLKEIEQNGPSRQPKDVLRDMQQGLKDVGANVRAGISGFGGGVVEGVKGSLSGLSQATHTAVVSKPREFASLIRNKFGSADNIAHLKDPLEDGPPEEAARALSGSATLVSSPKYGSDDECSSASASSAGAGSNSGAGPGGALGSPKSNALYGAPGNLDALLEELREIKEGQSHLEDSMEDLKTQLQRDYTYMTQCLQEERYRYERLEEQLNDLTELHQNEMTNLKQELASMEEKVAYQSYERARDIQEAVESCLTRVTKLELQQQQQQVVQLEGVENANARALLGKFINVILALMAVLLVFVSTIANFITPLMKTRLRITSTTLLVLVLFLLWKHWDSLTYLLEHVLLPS
B2: Vesicle transport through interaction with t-SNAREs homolog 1B (Homo sapiens), Q9UEU0 (parent)
chain: MASSAASSEHFEKLHEIFRGLHEDLQGVPERLLGTAGTEEKKKLIRDFDEKQQEANETLAEMEEELRYAPLSFRNPMMSKLRNYRKDLAKLHREVRSTPLTATPGGRGDMKYGIYAVENEHMNRLQSQRAMLLQGTESLNRATQSIERSHRIATETDQIGSEIIEELGEQRDQLERTKSRLVNTSENLSKSRKILRSMSRKVTTNKLLLSIIILLELAILGGLVYYKFFRSH
partner: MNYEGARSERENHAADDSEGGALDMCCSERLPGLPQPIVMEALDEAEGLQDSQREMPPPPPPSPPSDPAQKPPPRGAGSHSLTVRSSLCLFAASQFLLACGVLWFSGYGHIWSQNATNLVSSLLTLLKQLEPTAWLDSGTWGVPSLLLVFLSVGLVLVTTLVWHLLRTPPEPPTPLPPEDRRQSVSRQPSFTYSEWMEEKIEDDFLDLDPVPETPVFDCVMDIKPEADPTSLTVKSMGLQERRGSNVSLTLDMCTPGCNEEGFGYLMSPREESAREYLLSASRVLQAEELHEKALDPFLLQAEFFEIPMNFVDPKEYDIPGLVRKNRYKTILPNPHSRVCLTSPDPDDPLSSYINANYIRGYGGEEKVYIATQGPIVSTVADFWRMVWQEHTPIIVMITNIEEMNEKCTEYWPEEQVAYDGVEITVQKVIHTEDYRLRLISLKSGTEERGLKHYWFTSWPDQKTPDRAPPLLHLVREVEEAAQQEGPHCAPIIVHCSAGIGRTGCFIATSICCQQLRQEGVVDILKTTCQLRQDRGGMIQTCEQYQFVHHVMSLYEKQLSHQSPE
B3: Stabilizer of axonemal microtubules 1 (Homo sapiens), Q8IYX7 (parent)
chain: MKTKCICELCSCGRHHCPHLPTKIYDKTEKPCLLSEYTENYPFYHSYLPRESFKPRREYQKGPIPMEGLTTSRRDFGPHKVAPVKVHQYDQFVPSEENMDLLTTYKKDYNPYPVCRVDPIKPRDSKYPCSDKMECLPTYKADYLPWNQPRREPLRLEHKYQPASVRFDNRTTHQDDYPIKGLVKTISCKPLAMPKLCNIPLEDVTNYKMSYVAHPVEKRFVHEAEKFRPCEIPFESLTTQKQSYRGLMGEPAKSLKPLARPPGLDMPFCNTTEFRDKYQAWPMPRMFSKAPITYVPPEDRMDLLTTVQAHYTCPKGAPAQSCRPALQIKKCGRFEGSSTTKDDYKQWSSMRTEPVKPVPQLDLPTEPLDCLTTTRAHYVPHLPINTKSCKPHWSGPRGNVPVESQTTYTISFTPKEMGRCLASYPEPPGYTFEEVDALGHRIYKPVSQAGSQQSSHLSVDDSENPNQRELEVLA
partner: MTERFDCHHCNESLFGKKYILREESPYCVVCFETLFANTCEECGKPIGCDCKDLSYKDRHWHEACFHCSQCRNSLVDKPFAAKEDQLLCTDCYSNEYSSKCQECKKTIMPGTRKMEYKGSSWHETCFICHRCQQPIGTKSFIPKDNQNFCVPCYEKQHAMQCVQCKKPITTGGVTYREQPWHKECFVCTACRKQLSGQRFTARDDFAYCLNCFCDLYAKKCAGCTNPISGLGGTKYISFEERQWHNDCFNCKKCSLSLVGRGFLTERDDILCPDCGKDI
B4: Leucine rich adaptor protein 1 (Homo sapiens), Q96LR2 (parent)
chain: MEGTVESQTPDLRDVEGKVGRKTPEGLLRGLRGECELGTSGALLLPGASSTGHDLGDKIMALKMELAYLRAIDVKILQQLVTLNEGIEAVRWLLEERGTLTSHCSSLTSSQYSLTGGSPGRSRRGSWDSLPDTSTTDRLDSVSIGSFLDTVAPSELDEQGPPGAPRSEMDWAKVIAGGERARTEVDVAATRLGSLRAVWKPPGERLQGGPPESPEDESAKLGFEAHWFWEQCQDDVTFL
partner: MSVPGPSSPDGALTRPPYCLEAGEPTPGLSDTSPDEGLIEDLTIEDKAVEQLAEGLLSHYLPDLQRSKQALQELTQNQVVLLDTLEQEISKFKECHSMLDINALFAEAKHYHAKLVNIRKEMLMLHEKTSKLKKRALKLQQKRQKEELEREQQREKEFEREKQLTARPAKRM
B5: NADPH-dependent diflavin oxidoreductase 1 (Homo sapiens), Q9UHB4 (parent)
chain: MPSPQLLVLFGSQTGTAQDVSERLGREARRRRLGCRVQALDSYPVVNLINEPLVIFVCATTGQGDPPDNMKNFWRFIFRKNLPSTALCQMDFAVLGLGDSSYAKFNFVAKKLHRRLLQLGGSALLPVCLGDDQHELGPDAAVDPWLRDLWDRVLGLYPPPPGLTEIPPGVPLPSKFTLLFLQEAPSTGSEGQRVAHPGSQEPPSESKPFLAPMISNQRVTGPSHFQDVRLIEFDILGSGISFAAGDVVLIQPSNSAAHVQRFCQVLGLDPDQLFMLQPREPDVSSPTRLPQPCSMRHLVSHYLDIASVPRRSFFELLACLSLHELEREKLLEFSSAQGQEELFEYCNRPRRTILEVLCDFPHTAAAIPPDYLLDLIPVIRPRAFSIASSLLTHPSRLQILVAVVQFQTRLKEPRRGLCSSWLASLDPGQGPVRVPLWVRPGSLAFPETPDTPVIMVGPGTGVAPFRAAIQERVAQGQTGNFLFFGCRWRDQDFYWEAEWQELEKRDCLTLIPAFSREQEQKVYVQHRLRELGSLVWELLDRQGAYFYLAGNAKSMPADVSEALMSIFQEEGGLCSPDAAAYLARLQQTRRFQTETWA
B6: PIH1 domain-containing protein 2 (Homo sapiens), Q8WWB5 (parent)
chain: METSSKGLLTQVTQFWNLLDDLAQSDPEGYEKFIQQQLKEGKQLCAAPEPQLCLQTRILKPKEKILFINLCQWTRIPAPQSTTHPVPLTVGKPEDTTEISDAYTVIDVAYNPDVLHAAEKDQVKKNQLIQMAMKCIEEKFQFTLSHSYHITKFRIKGSIQRMKQNLMGIQTDSIDLREKMRRELTLGQIRSSTMSNPDHFPQLLLPKDQVSGKAVCLIEEISSTEIQVEMKMPAYELKIVHDHSEKPLKIELKVELPGINSVSLCDLSVSEDDLLIEVSEKYRLHLNLPKLIDTEMTTAKFIKEKSTLIITMPLV
partner: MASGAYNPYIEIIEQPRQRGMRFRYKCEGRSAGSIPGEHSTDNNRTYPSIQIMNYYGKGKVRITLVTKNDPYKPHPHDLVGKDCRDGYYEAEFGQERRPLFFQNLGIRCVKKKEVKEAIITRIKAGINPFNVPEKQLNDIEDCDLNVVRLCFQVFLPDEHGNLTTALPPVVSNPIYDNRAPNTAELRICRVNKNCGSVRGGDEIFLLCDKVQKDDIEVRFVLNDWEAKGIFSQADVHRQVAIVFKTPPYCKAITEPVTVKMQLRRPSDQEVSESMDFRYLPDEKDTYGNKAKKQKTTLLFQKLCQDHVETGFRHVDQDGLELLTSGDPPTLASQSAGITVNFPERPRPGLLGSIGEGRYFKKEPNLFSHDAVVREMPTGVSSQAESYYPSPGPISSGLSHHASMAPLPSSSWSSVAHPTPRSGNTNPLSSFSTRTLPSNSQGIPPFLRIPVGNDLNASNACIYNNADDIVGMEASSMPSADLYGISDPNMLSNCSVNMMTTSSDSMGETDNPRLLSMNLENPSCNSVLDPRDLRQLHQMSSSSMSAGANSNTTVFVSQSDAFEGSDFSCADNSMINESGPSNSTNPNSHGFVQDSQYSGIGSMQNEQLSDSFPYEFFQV

Variants of: B1
Conditions: with tmcc2_human TMCC2, O75069

| effect of a mutation on the interaction | Variant |
| --- | --- |
| disrupting interaction strength | I501F |

Variants of: B2
Conditions: with ptn5_human PTPN5, P54829

| effect of a mutation on the interaction | Variant |
| --- | --- |
| with no effect | R124Q |
| with no effect | R176H |

Variants of: B3
Conditions: with fhl2_human FHL2, Q14192

| effect of a mutation on the interaction | Variant |
| --- | --- |
| disrupting interaction strength | N464K |
| disrupting interaction strength | D118G |

Variants of: B4
Conditions: with bl1s6_human BLOC1S6, Q9UL45

| effect of a mutation on the interaction | Variant |
| --- | --- |
| disrupting interaction strength | Q207R |
| with no effect | M60L |

Variants of: B5
Conditions: with ccd33_human CCDC33, Q8N5R6
Sequence of ccd33_human CCDC33, Q8N5R6 (Q8N5R6 whole entry): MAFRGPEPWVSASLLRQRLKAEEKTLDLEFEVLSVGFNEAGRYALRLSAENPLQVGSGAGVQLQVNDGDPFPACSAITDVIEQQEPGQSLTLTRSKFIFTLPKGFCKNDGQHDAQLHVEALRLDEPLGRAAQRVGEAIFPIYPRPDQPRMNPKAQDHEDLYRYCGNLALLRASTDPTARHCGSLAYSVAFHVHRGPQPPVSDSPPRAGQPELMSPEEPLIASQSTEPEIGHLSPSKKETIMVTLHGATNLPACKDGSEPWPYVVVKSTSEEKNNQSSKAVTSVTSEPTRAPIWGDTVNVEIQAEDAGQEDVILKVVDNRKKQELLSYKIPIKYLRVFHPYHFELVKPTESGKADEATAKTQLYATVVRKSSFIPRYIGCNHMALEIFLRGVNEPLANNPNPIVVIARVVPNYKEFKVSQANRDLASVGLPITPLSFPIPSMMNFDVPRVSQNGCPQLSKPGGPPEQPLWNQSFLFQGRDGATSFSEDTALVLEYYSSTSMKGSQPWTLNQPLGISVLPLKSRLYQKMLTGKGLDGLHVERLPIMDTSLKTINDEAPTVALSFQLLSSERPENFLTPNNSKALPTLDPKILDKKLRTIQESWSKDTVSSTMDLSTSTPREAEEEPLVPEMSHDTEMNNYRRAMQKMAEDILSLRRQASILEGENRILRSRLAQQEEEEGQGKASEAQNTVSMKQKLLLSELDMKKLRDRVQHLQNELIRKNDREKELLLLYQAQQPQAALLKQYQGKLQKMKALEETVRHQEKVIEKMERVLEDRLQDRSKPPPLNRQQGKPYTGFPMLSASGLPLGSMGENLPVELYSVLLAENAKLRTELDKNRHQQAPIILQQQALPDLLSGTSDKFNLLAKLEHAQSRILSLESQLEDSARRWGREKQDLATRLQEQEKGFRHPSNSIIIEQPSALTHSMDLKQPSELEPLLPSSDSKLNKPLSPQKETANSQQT

| effect of a mutation on the interaction | Variant |
| --- | --- |
| with no effect | V153I |

Variants of: B5
Conditions: with cpin1_human CIAPIN1, Q6FI81
Sequence of cpin1_human CIAPIN1, Q6FI81 (Q6FI81 whole entry): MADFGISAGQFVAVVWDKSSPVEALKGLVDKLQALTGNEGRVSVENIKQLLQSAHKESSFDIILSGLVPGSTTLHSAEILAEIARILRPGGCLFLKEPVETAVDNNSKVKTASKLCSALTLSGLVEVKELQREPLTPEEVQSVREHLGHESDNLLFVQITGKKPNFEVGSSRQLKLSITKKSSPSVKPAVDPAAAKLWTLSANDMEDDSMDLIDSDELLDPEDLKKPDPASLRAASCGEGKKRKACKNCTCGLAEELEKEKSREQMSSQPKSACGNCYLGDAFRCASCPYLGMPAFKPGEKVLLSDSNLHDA

| effect of a mutation on the interaction | Variant |
| --- | --- |
| with no effect | V153I |

Variants of: B5
Conditions: with itf2_human TCF4, P15884
Sequence of itf2_human TCF4, P15884 (P15884 whole entry): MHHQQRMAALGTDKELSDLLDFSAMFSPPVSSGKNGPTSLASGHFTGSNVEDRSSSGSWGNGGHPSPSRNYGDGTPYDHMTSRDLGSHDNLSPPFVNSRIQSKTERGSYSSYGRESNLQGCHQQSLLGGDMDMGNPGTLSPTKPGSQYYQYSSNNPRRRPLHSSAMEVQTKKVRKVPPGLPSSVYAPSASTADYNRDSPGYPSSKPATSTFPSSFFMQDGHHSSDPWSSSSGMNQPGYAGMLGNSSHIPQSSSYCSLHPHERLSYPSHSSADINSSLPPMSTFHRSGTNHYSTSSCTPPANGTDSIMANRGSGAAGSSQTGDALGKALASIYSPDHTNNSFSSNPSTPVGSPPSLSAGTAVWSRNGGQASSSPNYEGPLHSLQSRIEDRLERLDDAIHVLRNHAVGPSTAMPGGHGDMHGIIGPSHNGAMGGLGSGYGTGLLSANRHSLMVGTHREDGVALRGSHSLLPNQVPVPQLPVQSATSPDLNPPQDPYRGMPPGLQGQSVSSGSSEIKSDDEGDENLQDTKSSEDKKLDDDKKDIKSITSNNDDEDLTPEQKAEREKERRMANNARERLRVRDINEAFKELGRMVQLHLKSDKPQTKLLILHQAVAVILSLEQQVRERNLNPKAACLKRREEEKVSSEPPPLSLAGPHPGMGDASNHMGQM

| effect of a mutation on the interaction | Variant |
| --- | --- |
| with no effect | V153I |

Variants of: B5
Conditions: with mtus2_human MTUS2, Q5JR59
Sequence of mtus2_human MTUS2, Q5JR59 (Q5JR59 whole entry): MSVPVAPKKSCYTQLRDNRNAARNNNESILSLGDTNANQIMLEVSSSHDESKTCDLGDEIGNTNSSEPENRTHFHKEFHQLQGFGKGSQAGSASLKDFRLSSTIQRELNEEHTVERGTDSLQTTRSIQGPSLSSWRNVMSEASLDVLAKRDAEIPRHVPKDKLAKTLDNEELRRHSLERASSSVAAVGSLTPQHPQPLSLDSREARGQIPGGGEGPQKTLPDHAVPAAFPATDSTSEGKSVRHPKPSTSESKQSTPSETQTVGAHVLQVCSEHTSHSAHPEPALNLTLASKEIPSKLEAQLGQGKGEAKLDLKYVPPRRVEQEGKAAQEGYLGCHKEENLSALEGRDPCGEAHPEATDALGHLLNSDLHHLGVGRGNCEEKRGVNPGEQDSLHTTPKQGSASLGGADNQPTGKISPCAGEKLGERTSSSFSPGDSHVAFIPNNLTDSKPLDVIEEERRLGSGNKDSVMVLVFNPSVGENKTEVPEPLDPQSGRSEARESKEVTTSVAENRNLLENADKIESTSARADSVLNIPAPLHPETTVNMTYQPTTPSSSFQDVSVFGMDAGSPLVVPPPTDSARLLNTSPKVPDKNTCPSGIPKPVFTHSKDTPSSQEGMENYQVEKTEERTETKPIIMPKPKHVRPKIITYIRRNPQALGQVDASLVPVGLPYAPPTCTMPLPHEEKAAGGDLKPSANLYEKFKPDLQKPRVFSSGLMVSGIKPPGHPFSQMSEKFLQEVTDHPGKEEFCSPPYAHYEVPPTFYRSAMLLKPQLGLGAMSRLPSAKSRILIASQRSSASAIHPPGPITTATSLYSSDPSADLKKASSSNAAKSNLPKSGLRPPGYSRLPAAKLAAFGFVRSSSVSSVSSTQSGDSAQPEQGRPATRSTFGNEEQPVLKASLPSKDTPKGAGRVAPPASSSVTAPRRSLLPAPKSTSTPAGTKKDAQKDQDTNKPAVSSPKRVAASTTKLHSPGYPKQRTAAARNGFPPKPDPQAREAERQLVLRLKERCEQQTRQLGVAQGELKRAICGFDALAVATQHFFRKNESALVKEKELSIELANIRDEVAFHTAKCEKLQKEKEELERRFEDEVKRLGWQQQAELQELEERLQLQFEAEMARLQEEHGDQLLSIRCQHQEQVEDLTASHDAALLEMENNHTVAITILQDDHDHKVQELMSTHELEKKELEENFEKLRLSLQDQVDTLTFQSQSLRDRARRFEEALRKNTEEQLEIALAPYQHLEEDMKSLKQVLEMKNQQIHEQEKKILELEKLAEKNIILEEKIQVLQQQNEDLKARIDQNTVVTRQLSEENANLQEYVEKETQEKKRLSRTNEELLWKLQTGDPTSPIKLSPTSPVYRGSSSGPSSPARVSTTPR

| effect of a mutation on the interaction | Variant |
| --- | --- |
| with no effect | P281L |

Variants of: B6
Conditions: with rel_human REL

| effect of a mutation on the interaction | Variant |
| --- | --- |
| with no effect | A117V |
| with no effect | A102D |
